Assay results published in patent publication US20210069338A1 (published 2021).

Molecular target: T1, human transferrin receptor (TfR) on hCMEC/D3 brain endothelial cells (human, UniProt P02786 1-760)
T1 construct: whole, on cells; also called blood brain barrier receptor
Assay: FACS on hCMEC/D3 cells, anti-IgG-PE detection, Dig-Cy5 as payload
Description: To evaluate this functionality of the hapten-binding bispecific antibodies as reported herein, simultaneous cell surface and payload binding was addressed by FACS analyses. For these analyses, cell binding of the blood brain barrier-shuttle module (=bispecific antibody) was detected by phytoerythrin-labeled IgG recognizing secondary antibodies. Simultaneous payload binding was detected by application of a haptenylated fluorescent payload (digoxigenylated Cy5; DIG-Cy5 (see above)).

T1 sequence (P02786 whole entry): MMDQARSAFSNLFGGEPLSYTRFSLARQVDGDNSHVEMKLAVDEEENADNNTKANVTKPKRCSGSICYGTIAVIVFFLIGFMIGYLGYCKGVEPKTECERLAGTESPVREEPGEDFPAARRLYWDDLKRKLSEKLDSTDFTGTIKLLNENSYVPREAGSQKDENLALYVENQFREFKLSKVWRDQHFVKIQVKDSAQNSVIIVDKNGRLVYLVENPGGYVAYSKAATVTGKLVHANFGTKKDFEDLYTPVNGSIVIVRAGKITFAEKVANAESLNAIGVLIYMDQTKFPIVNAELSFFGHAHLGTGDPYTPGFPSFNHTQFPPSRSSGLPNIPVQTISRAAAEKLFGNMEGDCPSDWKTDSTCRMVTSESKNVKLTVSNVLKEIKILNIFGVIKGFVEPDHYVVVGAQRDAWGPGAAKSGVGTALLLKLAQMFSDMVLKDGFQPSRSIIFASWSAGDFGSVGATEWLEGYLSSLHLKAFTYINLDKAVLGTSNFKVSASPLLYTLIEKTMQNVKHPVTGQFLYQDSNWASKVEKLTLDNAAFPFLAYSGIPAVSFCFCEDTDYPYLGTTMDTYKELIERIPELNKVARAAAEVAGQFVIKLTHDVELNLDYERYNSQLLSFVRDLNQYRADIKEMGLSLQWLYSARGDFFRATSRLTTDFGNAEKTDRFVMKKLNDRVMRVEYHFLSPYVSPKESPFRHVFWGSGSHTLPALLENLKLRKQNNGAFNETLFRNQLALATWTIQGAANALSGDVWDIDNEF

| Binder | binding result |
| --- | --- |
| TfR1-Dig bispecific antibody (digoxigenylated payload binding blood brain barrier-shuttle module that binds TfR with high affinity) (bispecific antibody, human IgG1, kappa, also called anti-TfR1 antibody-Dig) light: QIVLTQSPAIMSASPGEKVTMTCSASSSIRYIHWYQQRPGTSPKRWIYDTSNLASGVPARFSGSGSGTSYSLTISSMEAEDAATYYCHQRNSYPWTFGGGTRLEIKRTVAAPSVFIFPPSDEQLKSGTASVVCLLNNFYPREAKVQWKVDNALQSGNSQESVTEQDSKDSTYSLSSTLTLSKADYEKHKVYACEVTHQGLSSPVTKSFNRGEC heavy: not shown | binds |
| TfR2-Dig bispecific antibody (digoxigenylated payload binding blood brain barrier-shuttle module that binds TfR with reduced affinity) (bispecific antibody, human IgG1, kappa, also called anti-TfR2-antibody Dig) light: QIVLTQSPAIMSASPGEKVTVTCSASSSIRYMHWYQQKPGTSPKRWIYDTSELASGVPARFSGSGSGTSYSLTINSMEAEDAATYYCHQRSSYPFTFGGGTKLEIKRTVAAPSVFIFPPSDEQLKSGTASVVCLLNNFYPREAKVQWKVDNALQSGNSQESVTEQDSKDSTYSLSSTLTLSKADYEKHKVYACEVTHQGLSSPVTKSFNRGEC heavy: not shown | binds |

Molecular target: T1, human transferrin receptor (TfR) on …
Assay: hCMEC/D3 transwell assay, IgG ELISA of cell lysates and media
Protocol: We used brain endothelial cells (hCMEC/D3) to investigate cell binding and transcytosis of the shuttle modules as reported herein. […] To investigate cell binding and transcytosis in hCMEC/D3, hCMEC/D3 cells cultured on filter inserts were incubated apically with the bispecific antibody or parent antibody (without hapten-binding scFvs as controls) for 1 h at 37° C. Cell monolayers were washed at RT in serum-free medium apically (400 μl) and basolaterally (1600 μl) three times for 3-5 min. each. All wash volumes were collected to monitor efficiency of removal of the unbound ligand or antibody. Pre-warmed medium was added to the apical chamber and the filters transferred to a fresh 12 well plate (blocked overnight with PBS containing 1% BSA) containing 1600 μl pre-warmed medium. At this point, cells on some of the filters were lysed in 500 μl RIPA buffer (Sigma, Munich, Germany, #R0278) in order to determine specific uptakes. The remaining filters were incubated at 37° C., and samples of cells and of basolateral and apical media were collected at various time points to determine apical and/or basolateral release. The content of antibody in the samples was quantified using a highly sensitive IgG ELISA.

| Binder | binding result |
| --- | --- |
| TfR2-Bio bispecific antibody (biotinylated payload binding blood brain barrier-shuttle module that binds TfR with reduced affinity) (bispecific antibody, human IgG1, kappa, also called anti-TfR2-Bio) light: QIVLTQSPAIMSASPGEKVTVTCSASSSIRYMHWYQQKPGTSPKRWIYDTSELASGVPARFSGSGSGTSYSLTINSMEAEDAATYYCHQRSSYPFTFGGGTKLEIKRTVAAPSVFIFPPSDEQLKSGTASVVCLLNNFYPREAKVQWKVDNALQSGNSQESVTEQDSKDSTYSLSSTLTLSKADYEKHKVYACEVTHQGLSSPVTKSFNRGEC heavy: not shown | binds |
| TfR1-Bio bispecific antibody (biotinylated payload binding blood brain barrier-shuttle module that binds TfR with high affinity) (bispecific antibody, human IgG1, kappa, also called anti-TfR1 antibody-Bio) light: QIVLTQSPAIMSASPGEKVTMTCSASSSIRYIHWYQQRPGTSPKRWIYDTSNLASGVPARFSGSGSGTSYSLTISSMEAEDAATYYCHQRNSYPWTFGGGTRLEIKRTVAAPSVFIFPPSDEQLKSGTASVVCLLNNFYPREAKVQWKVDNALQSGNSQESVTEQDSKDSTYSLSSTLTLSKADYEKHKVYACEVTHQGLSSPVTKSFNRGEC heavy: not shown | binds |
| anti-TfR1 antibody (high affinity bivalent anti-TfR antibody, parent antibody without hapten-binding scFvs) (antibody, human IgG1, kappa, V domains shown, also called antibody TfR1) VH: EVQLQQSGPELVKPGASMKISCKASGYSFTGYTMNWVKQSHGENLEWIGRINPHNGGTDYNQKFKDKAPLTVDKSSNTAYMELLSLTSEDSAVYYCARGYYYYSLDYWGQGTSVTVSS VL: QIVLTQSPAIMSASPGEKVTMTCSASSSIRYIHWYQQRPGTSPKRWIYDTSNLASGVPARFSGSGSGTSYSLTISSMEAEDAATYYCHQRNSYPWTFGGGTRLEIKR | binds |
| anti-TfR2 antibody (bivalent anti-TfR antibody with reduced affinity, parent antibody without hapten-binding scFvs) (antibody, human IgG1, kappa, V domains shown, also called antibody TfR2) VH: EVQLQQSGPELVKPGASVKMSCKASGYTFTSYVMHWVKQKPGQGLEWIGYVNPYNDDTKYNEKFRGKATLTSDKSSSTAYMELSSLTSEDSAVYYCARSYYYYSMDNWGQGTSVTVSS VL: QIVLTQSPAIMSASPGEKVTVTCSASSSIRYMHWYQQKPGTSPKRWIYDTSELASGVPARFSGSGSGTSYSLTINSMEAEDAATYYCHQRSSYPFTFGGGTKLEIKR | binds |
